Experimental data reported in publication PMC12313861.

Target: ComFB signaling protein (Slr1970) (Synechocystis)
Assay: SEC-MALS; size exclusion chromatography coupled to multiangle light scattering of ComFB; species of 40.5 kDa against theoretical monomer mass 20.4 kDa

ComFB signaling protein (Slr1970) (natural protein)
stoichiometry N: 2
